In publication doi:10.1101/2021.05.06.442907:

Target: actin filaments (UniProt P68135)

Vmax of actin-activated ATPase activity, 25 °C (Pi s^−1 head^−1): 410
Substance: Chara braunii myosin XI-1 motor domain construct without IQ motifs (domain or fragment)
